Reference: patent publication US20160033490A1

Target: HRV-3C protease biosensor: blocked hybrid scFv of H6-MG (VH) and HL1-TO1 (VL) with the HRV-3C recognition sequence […]in the peptide linker
Assay: cell-based or functional assay

Work on Human Rhinovirus 3C protease (enzyme) yielded a kinetic assay of MG fluorescence activation, time to complete activation (1 unit protease, 25° C.) of 30 min.
